Measurements from patent US20260167699A1 (Chugai, published 2026).

Key:
[1] = biological target: T1, FcγRIIIa extracellular domain with C-terminal His tag (allotype not given) (human, UniProt P08637 17-208); test: SPR; KD of GpH7-A5/GpH7-B3/GpL16-k0 for FcγRIIIa divided by KD of this antibody
T1 construct: extracellular domain; also called 3a

[2] = biological target: T1, FcγRIIIa extracellular domain with …; test: SPR (Biacore), captured antibody, FcγRIIIa analyte, 1:1 Langmuir fit
Description: (§1) The antibody of interest was analyzed for its interaction with FcγR using a BiaCore™ T100, BiaCore™ A100, or BiaCore™ 4000 surface plasmon resonance system (GE Healthcare Japan Corp.). The running buffer used was HBS-EP+ (GE Healthcare Japan Corp.). The assay temperature was set to 25° C. The sensor chips used were: a chip prepared by immobilizing antigenic peptides onto Series S Sensor Chip CM5 (GE Healthcare Japan Corp.) by the amine coupling method; a chip prepared by immobilizing antigenic peptides biotinylated in advance onto Series S Sensor Chip SA (certified) (GE Healthcare Japan Corp.) through their interaction; a chip prepared by immobilizing protein L (ACTIGEN, BioVision, Inc.) onto Series S Sensor Chip CM5 (GE Healthcare Japan Corp.); and a chip prepared by immobilizing protein A/G (Thermo Fisher Scientific K.K.) onto Series S Sensor Chip CM5 (GE Healthcare Japan Corp.). The antibody of interest was captured onto any of these chips and allowed to interact with FcγR diluted with a running buffer. The antibody captured on the chip was washed off through the reaction of 10 mM glycine-HCl (pH 1.5) to regenerate the chip, which was repetitively used.

[3] = biological target: T1, FcγRIIIa extracellular domain with …; test: SPR; KD of GpH7-G1d/GpL16-k0 for FcγRIIIa divided by KD of this antibody
Description: as §1

FcγRIIIa = biological target: T2, FcγRIIIa (human, UniProt P08637 17-208); test: SPR (Biacore T100), antibody captured on protein L chip, FcγRIIIa as analyte, TBS(+), 25 C, 1:1 Langmuir fit
T2 construct: extracellular domain; also called 3a
T2 sequence (P08637 other isoform, or with tags, fused parts or gaps): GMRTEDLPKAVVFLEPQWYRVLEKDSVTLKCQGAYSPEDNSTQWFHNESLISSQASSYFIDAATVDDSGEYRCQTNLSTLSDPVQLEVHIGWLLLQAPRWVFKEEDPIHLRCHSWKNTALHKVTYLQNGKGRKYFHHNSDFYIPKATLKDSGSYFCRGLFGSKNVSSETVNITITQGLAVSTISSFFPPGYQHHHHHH
Description: Specifically, their interaction with FcγRIIIa was analyzed using BiaCore™ T100 surface plasmon resonance system (GE Healthcare Japan Corp.). The running buffer used was the TBS(+) solution used in the preceding paragraph. The assay temperature was set to 25° C. Protein L was immobilized onto Series S Sensor Chip CM4 (GE Healthcare Japan Corp.) by the amine coupling method to prepare a chip. Each antibody of interest was captured onto the protein L-immobilized chip and allowed to interact with FcγRIIIa diluted with a running buffer. The antibody captured on the chip was washed off through the reaction of 10 mM glycine-HCl (pH 1.5) to regenerate the chip, which was repetitively used.
Each antibody was evaluated for its binding activity against FcγRIIIa with binding activity against FcγRIIIa and dissociation constant for FcγRIIIa as main indexes. […] Specifically, a sensorgram obtained by assay using BiaCore™ surface plasmon resonance Evaluation Software was globally fit into the 1:1 Langmuir model to calculate an association rate constant ka (L/mol/s) and a dissociation rate constant kd (1/s). From these values, the dissociation constant KD (mol/L) was calculated.

T1 sequence (P08637 other isoform, or with tags, fused parts or gaps): as above

| Binder | KD ratio2 [1] [fold] | Kd [2] [nM] | KD ratio1 [3] [fold] | Kd (FcγRIIIa) [nM] |
| --- | --- | --- | --- | --- |
| GpH7-TA7/GpH7-B78/GpL16-k0 (antibody, human IgG1, kappa, heterodimerized anti-glypican 3 IgG1; L234Y/G236W/S298A in one H chain, S239D/A330L/I332E in the other) heavy 1: QVQLVQSGAEVKKPGASVTVSCKASGYTFTDYEMHWIRQPPGEGLEWIGAIDPKTGDTAYSESFQDRVTLTADKSTSTAYMELSSLTSEDTAVYYCTRFYSYTYWGQGTLVTVSSASTKGPSVFPLAPSSKSTSGGTAALGCLVKDYFPEPVTVSWNSGALTSGVHTFPAVLQSSGLYSLSSVVTVPSSSLGTQTYICNVNHKPSNTKVDKKVEPKSCDKTHTCPPCPAPEYLWGPSVFLFPPKPKDTLMISRTPEVTCVVVDVSHEDPEVKFNWYVDGVEVHNAKTKPREEQYNATYRVVSVLTVLHQDWLNGKEYKCKVSNKALPAPIEKTISKAKGQPREPQVYTLPPSRKELTKNQVSLTCLVKGFYPSDIAVEWESNGQPENNYKTTPPVLDSDGSFFLYSKLTVDKSRWQQGNVFSCSVMHEALHNRYTQKSLSLSP heavy 2: QVQLVQSGAEVKKPGASVTVSCKASGYTFTDYEMHWIRQPPGEGLEWIGAIDPKTGDTAYSESFQDRVTLTADKSTSTAYMELSSLTSEDTAVYYCTRFYSYTYWGQGTLVTVSSASTKGPSVFPLAPSSKSTSGGTAALGCLVKDYFPEPVTVSWNSGALTSGVHTFPAVLQSSGLYSLSSVVTVPSSSLGTQTYICNVNHKPSNTKVDKKVEPKSCDKTHTCPPCPAPELLGGPDVFLFPPKPKDTLMISRTPEVTCVVVDVSHEDPEVKFNWYVDGVEVHNAKTKPREEQYNSTYRVVSVLTVLHQDWLNGKEYKCKVSNKALPLPEEKTISKAKGQPREPQVYTLPPSRDELTKNQVSLTCLVKGFYPSDIAVEWESNGQPENNYKTTPPVLDSDGSFFLYSKLTVDKSRWQQGNVFSCSVMHEALHNHYTQESLSLSP light: DIVMTQSPLSLPVTPGEPASISCQASESLVHSNRNTYLHWYLQKPGQSPQLLIYKVSNRFSGVPDRFSGSGSGTDFTLKISRVEAEDVGVYYCSQNTHVPPTFGQGTKVEIERTVAAPSVFIFPPSDEQLKSGTASVVCLLNNFYPREAKVQWKVDNALQSGNSQESVTEQDSKDSTYSLSSTLTLSKADYEKHKVYACEVTHQGLSSPVTKSFNRGEC | 347 | 4.7 | 261 | – |
| GpH7-A5/GpH7-B3/GpL16-k0 (antibody, human IgG1, kappa, also called HeCon Ab) heavy 1: not shown heavy 2: not shown light: DIVMTQSPLSLPVTPGEPASISCQASESLVHSNRNTYLHWYLQKPGQSPQLLIYKVSNRFSGVPDRFSGSGSGTDFTLKISRVEAEDVGVYYCSQNTHVPPTFGQGTKVEIERTVAAPSVFIFPPSDEQLKSGTASVVCLLNNFYPREAKVQWKVDNALQSGNSQESVTEQDSKDSTYSLSSTLTLSKADYEKHKVYACEVTHQGLSSPVTKSFNRGEC | 1 | 1600 | 0.75 | – |
| GpH7-TA7/GpH7-TA45/GpL16-k0 (antibody, human IgG1, kappa, anti-glypican 3 IgG1 called homodimerized: L234Y/G236W/S298A in both H chains) heavy 1: QVQLVQSGAEVKKPGASVTVSCKASGYTFTDYEMHWIRQPPGEGLEWIGAIDPKTGDTAYSESFQDRVTLTADKSTSTAYMELSSLTSEDTAVYYCTRFYSYTYWGQGTLVTVSSASTKGPSVFPLAPSSKSTSGGTAALGCLVKDYFPEPVTVSWNSGALTSGVHTFPAVLQSSGLYSLSSVVTVPSSSLGTQTYICNVNHKPSNTKVDKKVEPKSCDKTHTCPPCPAPEYLWGPSVFLFPPKPKDTLMISRTPEVTCVVVDVSHEDPEVKFNWYVDGVEVHNAKTKPREEQYNATYRVVSVLTVLHQDWLNGKEYKCKVSNKALPAPIEKTISKAKGQPREPQVYTLPPSRKELTKNQVSLTCLVKGFYPSDIAVEWESNGQPENNYKTTPPVLDSDGSFFLYSKLTVDKSRWQQGNVFSCSVMHEALHNRYTQKSLSLSP heavy 2: QVQLVQSGAEVKKPGASVTVSCKASGYTFTDYEMHWIRQPPGEGLEWIGAIDPKTGDTAYSESFQDRVTLTADKSTSTAYMELSSLTSEDTAVYYCTRFYSYTYWGQGTLVTVSSASTKGPSVFPLAPSSKSTSGGTAALGCLVKDYFPEPVTVSWNSGALTSGVHTFPAVLQSSGLYSLSSVVTVPSSSLGTQTYICNVNHKPSNTKVDKKVEPKSCDKTHTCPPCPAPEYLWGPSVFLFPPKPKDTLMISRTPEVTCVVVDVSHEDPEVKFNWYVDGVEVHNAKTKPREEQYNATYRVVSVLTVLHQDWLNGKEYKCKVSNKALPAPIEKTISKAKGQPREPQVYTLPPSRDELTKNQVSLTCLVKGFYPSDIAVEWESNGQPENNYKTTPPVLDSDGSFFLYSKLTVDKSRWQQGNVFSCSVMHEALHNHYTQESLSLSP light: DIVMTQSPLSLPVTPGEPASISCQASESLVHSNRNTYLHWYLQKPGQSPQLLIYKVSNRFSGVPDRFSGSGSGTDFTLKISRVEAEDVGVYYCSQNTHVPPTFGQGTKVEIERTVAAPSVFIFPPSDEQLKSGTASVVCLLNNFYPREAKVQWKVDNALQSGNSQESVTEQDSKDSTYSLSSTLTLSKADYEKHKVYACEVTHQGLSSPVTKSFNRGEC | 0.49 | 3300 | 0.37 | – |
| H240-G1d-CD/H240-G1d-CD/L73 (antibody, human IgG1, kappa, anti-EREG antibody with the RGD peptide inserted in the CH3 regions (control)) heavy: QDQLVQSGAEVKKPGASVKVSCKASGFNIKDTYIQWVRQAPGQGLEWMGRIDPLRKQTKYREKFEGRVTITADTSTNTAYMELSSLRSEDTAVYYCVRSGREFDYWGQGTLVTVSSASTKGPSVFPLAPSSKSTSGGTAALGCLVKDYFPEPVTVSWNSGALTSGVHTFPAVLQSSGLYSLSSVVTVPSSSLGTQTYICNVNHKPSNTKVDKKVEPKSCDKTHTCPPCPAPELLGGPSVFLFPPKPKDTLMISRTPEVTCVVVDVSHEDPEVKFNWYVDGVEVHNAKTKPREEQYNSTYRVVSVLTVLHQDWLNGKEYKCKVSNKALPAPIEKTISKAKGQPREPQVYTLPPSRDELTKNQVSLTCLVKGFYPSDIAVEWESGCRGDCLPENNYKTTPPVLDSDGSFFLYSKLTVDKSRWQQGNVFSCSVMHEALHNHYTQKSLSLSP light: DIQMTQSPSSLSASVGDRVTITCRASQDIHKYIAWYQQKPGQAPRLLIQYTSTLQPGVPSRFSGSGSGTDYTFTISSLQPEDIATYYCLQYEQLRTFGGGTKVEIKRTVAAPSVFIFPPSDEQLKSGTASVVCLLNNFYPREAKVQWKVDNALQSGNSQESVTEQDSKDSTYSLSSTLTLSKADYEKHKVYACEVTHQGLSSPVTKSFNRGEC | – | – | – | 310 |
| H240-Kn125-CD/H240-Hl076/L73 (antibody, human IgG1, kappa, heterodimerized anti-EREG antibody with the RGD peptide inserted in a CH3 region (control); also called H240-Kn125-CD/H240-HI076/L73) heavy 1: QDQLVQSGAEVKKPGASVKVSCKASGFNIKDTYIQWVRQAPGQGLEWMGRIDPLRKQTKYREKFEGRVTITADTSTNTAYMELSSLRSEDTAVYYCVRSGREFDYWGQGTLVTVSSASTKGPSVFPLAPSSKSTSGGTAALGCLVKDYFPEPVTVSWNSGALTSGVHTFPAVLQSSGLYSLSSVVTVPSSSLGTQTYICNVNHKPSNTKVDKKVEPKSCDKTHTCPPCPAPELLGGPSVFLFPPKPKDTLMISRTPEVTCVVVDVSHEEPEVKFNWYVDGVEVHNAKTKPREEQYNSTYRVVSVLTVLHQDWLNGKEYKCKVSNDALPMPIEETISKAKGQPREPQVYTLPPSRCELTKNQVSLSCAVKGFYPSDIAVEWESNGQPENNYKTTPPVLDSDGSFFLVSKLTVDKSRWQQGNVFSCSVMHEALHNHYTQKSLSLSP heavy 2: QDQLVQSGAEVKKPGASVKVSCKASGFNIKDTYIQWVRQAPGQGLEWMGRIDPLRKQTKYREKFEGRVTITADTSTNTAYMELSSLRSEDTAVYYCVRSGREFDYWGQGTLVTVSSASTKGPSVFPLAPSSKSTSGGTAALGCLVKDYFPEPVTVSWNSGALTSGVHTFPAVLQSSGLYSLSSVVTVPSSSLGTQTYICNVNHKPSNTKVDKKVEPKSCDKTHTCPPCPAPEYQWGPMVFLFPPKPKDTLMISRTPEVTCVVVDVSDEEPEVKFNWYVDGVEVHNAKTKPREEQYNATYRVVSVLTVLHQDWLNGKEYKCKVSNKALPAPIEKTISKAKGQPREPQVCTLPPSRDELTKNQVSLWCLVKGFYPSDIAVEWESGCRGDCLPENNYKTTPPVLDSDGSFFLYSKLTVDKSRWQQGNVFSCSVMHEALHNHYTQKSLSLSP light: DIQMTQSPSSLSASVGDRVTITCRASQDIHKYIAWYQQKPGQAPRLLIQYTSTLQPGVPSRFSGSGSGTDYTFTISSLQPEDIATYYCLQYEQLRTFGGGTKVEIKRTVAAPSVFIFPPSDEQLKSGTASVVCLLNNFYPREAKVQWKVDNALQSGNSQESVTEQDSKDSTYSLSSTLTLSKADYEKHKVYACEVTHQGLSSPVTKSFNRGEC | – | – | – | 0.85 |
| H240-Kn125/H240-Hl076-ma1/L73 (antibody, human IgG1, kappa, heterodimerized anti-EREG antibody with the RGD peptide inserted in a loop region of the H240-Hl076 chain; also called H240-Kn125/H240-HI076-ma1/L73) heavy 1: QDQLVQSGAEVKKPGASVKVSCKASGFNIKDTYIQWVRQAPGQGLEWMGRIDPLRKQTKYREKFEGRVTITADTSTNTAYMELSSLRSEDTAVYYCVRSGREFDYWGQGTLVTVSSASTKGPSVFPLAPSSKSTSGGTAALGCLVKDYFPEPVTVSWNSGALTSGVHTFPAVLQSSGLYSLSSVVTVPSSSLGTQTYICNVNHKPSNTKVDKKVEPKSCDKTHTCPPCPAPELLGGPSVFLFPPKPKDTLMISRTPEVTCVVVDVSGCRGDCLEPEVKFNWYVDGVEVHNAKTKPREEQYNSTYRVVSVLTVLHQDWLNGKEYKCKVSNDALPMPIEETISKAKGQPREPQVYTLPPSRCELTKNQVSLSCAVKGFYPSDIAVEWESNGQPENNYKTTPPVLDSDGSFFLVSKLTVDKSRWQQGNVFSCSVMHEALHNHYTQKSLSLSP heavy 2: QDQLVQSGAEVKKPGASVKVSCKASGFNIKDTYIQWVRQAPGQGLEWMGRIDPLRKQTKYREKFEGRVTITADTSTNTAYMELSSLRSEDTAVYYCVRSGREFDYWGQGTLVTVSSASTKGPSVFPLAPSSKSTSGGTAALGCLVKDYFPEPVTVSWNSGALTSGVHTFPAVLQSSGLYSLSSVVTVPSSSLGTQTYICNVNHKPSNTKVDKKVEPKSCDKTHTCPPCPAPEYQWGPMVFLFPPKPKDTLMISRTPEVTCVVVDVSDEEPEVKFNWYVDGVEVHNAKTKPREEQYNATYRVVSVLTVLHQDWLNGKEYKCKVSNKALPAPIEKTISKAKGQPREPQVCTLPPSRDELTKNQVSLWCLVKGFYPSDIAVEWESNGQPENNYKTTPPVLDSDGSFFLYSKLTVDKSRWQQGNVFSCSVMHEALHNHYTQKSLSLSP light: DIQMTQSPSSLSASVGDRVTITCRASQDIHKYIAWYQQKPGQAPRLLIQYTSTLQPGVPSRFSGSGSGTDYTFTISSLQPEDIATYYCLQYEQLRTFGGGTKVEIKRTVAAPSVFIFPPSDEQLKSGTASVVCLLNNFYPREAKVQWKVDNALQSGNSQESVTEQDSKDSTYSLSSTLTLSKADYEKHKVYACEVTHQGLSSPVTKSFNRGEC | – | – | – | 2.1 |
